The values below come from patent US20220213181A1 (Novartis, published 2022).

Assay [1] concerns the target T1, Mouse ANGPTL4(26-410)-FLAG-His6-Avi (mouse, UniProt Q9Z1P8 24-410, biotin on the C-terminal Avi tag (BirA) where the protein is immobilised).
T1 sequence: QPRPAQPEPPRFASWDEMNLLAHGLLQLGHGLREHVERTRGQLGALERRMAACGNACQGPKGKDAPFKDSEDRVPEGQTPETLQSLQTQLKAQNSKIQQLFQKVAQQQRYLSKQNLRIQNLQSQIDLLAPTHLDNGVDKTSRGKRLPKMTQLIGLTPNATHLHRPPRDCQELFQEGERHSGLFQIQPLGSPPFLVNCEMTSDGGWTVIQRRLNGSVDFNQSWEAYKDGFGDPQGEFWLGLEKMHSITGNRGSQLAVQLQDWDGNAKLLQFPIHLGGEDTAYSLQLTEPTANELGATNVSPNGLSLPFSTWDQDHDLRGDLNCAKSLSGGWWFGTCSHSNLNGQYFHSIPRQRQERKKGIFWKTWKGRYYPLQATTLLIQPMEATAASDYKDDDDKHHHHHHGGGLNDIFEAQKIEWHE
The experiment in a line: Octet (ForteBio) kinetics, biotinylated antigen on streptavidin sensor, IgG in solution.

The target in assay [2] is T2, Human ANGPTL4(26-161)-FLAG-His6-Avi (human, biotin on the C-terminal Avi tag (BirA) where the protein is immobilised).
T2 construct: also called human ANGPTL4 N-terminal coiled coil domain; hANGPTL4-CCD
T2 chain: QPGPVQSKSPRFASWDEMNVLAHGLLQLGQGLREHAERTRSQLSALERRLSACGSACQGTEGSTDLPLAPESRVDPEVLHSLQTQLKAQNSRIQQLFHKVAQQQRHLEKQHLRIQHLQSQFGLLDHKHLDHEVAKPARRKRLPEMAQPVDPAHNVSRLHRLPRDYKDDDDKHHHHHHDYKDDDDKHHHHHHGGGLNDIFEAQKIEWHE
The assay is described as above.

Assay [3] has as its target T3, Rat ANGPTL4(24-405)-FLAG-His6-Avi (rat, UniProt Q6TMA8 24-405, biotin on the C-terminal Avi tag (BirA) where the protein is immobilised).
T3 sequence: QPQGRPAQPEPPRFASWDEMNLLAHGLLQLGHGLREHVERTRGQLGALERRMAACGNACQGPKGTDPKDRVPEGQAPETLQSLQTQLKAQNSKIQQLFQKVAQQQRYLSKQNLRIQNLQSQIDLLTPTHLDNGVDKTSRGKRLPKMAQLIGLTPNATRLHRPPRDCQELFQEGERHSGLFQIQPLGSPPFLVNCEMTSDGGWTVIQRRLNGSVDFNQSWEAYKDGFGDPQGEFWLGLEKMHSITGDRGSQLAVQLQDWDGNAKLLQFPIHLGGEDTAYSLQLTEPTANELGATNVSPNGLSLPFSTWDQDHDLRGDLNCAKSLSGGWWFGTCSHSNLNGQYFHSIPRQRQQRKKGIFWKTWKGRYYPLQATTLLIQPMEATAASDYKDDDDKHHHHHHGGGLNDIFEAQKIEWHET
The experiment in a line: Octet (ForteBio) kinetics; average KD of the runs; Octet kinetics; average KD of the three rat runs. For orientation: In BLI a coated tip is dipped into the sample, and binding shifts an interference pattern.

In assay [4] the target is T1, Mouse ANGPTL4(26-410)-FLAG-His6-Avi. The experiment in a line: Octet (ForteBio) kinetics; average KD of the runs; Octet kinetics; average KD of the two mouse runs.
Assay [5] addresses T3, Rat ANGPTL4(24-405)-FLAG-His6-Avi. The experiment in a line: Octet (ForteBio) kinetics, biotinylated antigen on streptavidin sensor, IgG in solution; Octet kinetics; run 3 on rat ANGPTL4.
The target of assay [6] is T4, Human ANGPTL4(26-406)-FLAG-His6-Avi (human, UniProt Q9BY76 24-406, biotin on the C-terminal Avi tag (BirA) where the protein is immobilised).
T4 construct: the text calls it 20 amino acids), then QP, ANGPTL4 26-406 and FLAG-His6-Avi; the signal peptide is left out here; also called full length human ANGPTL4; hANGPTL4
T4 sequence: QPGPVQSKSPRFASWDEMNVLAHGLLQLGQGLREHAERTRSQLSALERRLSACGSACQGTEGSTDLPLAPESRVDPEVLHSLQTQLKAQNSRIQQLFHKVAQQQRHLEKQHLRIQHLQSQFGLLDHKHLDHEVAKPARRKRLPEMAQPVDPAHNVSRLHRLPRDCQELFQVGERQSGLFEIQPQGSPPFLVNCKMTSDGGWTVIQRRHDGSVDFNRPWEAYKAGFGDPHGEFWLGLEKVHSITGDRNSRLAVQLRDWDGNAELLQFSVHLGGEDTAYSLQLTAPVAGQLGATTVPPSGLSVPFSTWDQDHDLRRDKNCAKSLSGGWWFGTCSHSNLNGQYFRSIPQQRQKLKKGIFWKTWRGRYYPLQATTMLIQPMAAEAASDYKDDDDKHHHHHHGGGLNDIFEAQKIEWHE
As to the kind of experiment: Octet (ForteBio) kinetics, biotinylated antigen on streptavidin sensor, IgG in solution; upper limit by the footnote. The procedure:
Dissociation constants (KD) were determined for selected antibodies of the invention by using an Octet (ForteBio) kinetic binding assay. ForteBio 10× Kinetics Buffer (ForteBio, catalog number 18-5032) was diluted 10-fold with DPBS (Life Technologies, catalog number 14190-136), and the resulting solution was added (0.2 ml per well) to a 96-well plate (Greiner, catalog number 65520). Streptavidin sensors (ForteBio, catalog number 18-5020) were immersed in the solution and equilibrated for at least 10 min at room temperature. In a second 96-well plate (Greiner, catalog number 65520), sensors were washed in 1× Kinetics buffer, and then immersed in 200 ul of 25 nM biotinylated human ANGPTL4 or a biotinylated reference protein (for background subtraction) for 1000 sec at […] room temperature. […] The sensors were then transferred to a well containing 200 μl 1× Kinetics buffer, and antibody dissociation was monitored for 1200 seconds. Background-corrected association and dissociation curves were globally fitted by Octet Software (ForteBio) to generate association (kₐ) and dissociation (kd) rate constants, which in turn were used to calculate equilibrium dissociation constants (KD).

Several values for one entry are separate records, joined by “and”; a condition that tells them apart may be missing. Equal entries are not always repeated.

B1: NEG276-LALA (antibody, human IgG1, kappa, L234A L235A)
heavy: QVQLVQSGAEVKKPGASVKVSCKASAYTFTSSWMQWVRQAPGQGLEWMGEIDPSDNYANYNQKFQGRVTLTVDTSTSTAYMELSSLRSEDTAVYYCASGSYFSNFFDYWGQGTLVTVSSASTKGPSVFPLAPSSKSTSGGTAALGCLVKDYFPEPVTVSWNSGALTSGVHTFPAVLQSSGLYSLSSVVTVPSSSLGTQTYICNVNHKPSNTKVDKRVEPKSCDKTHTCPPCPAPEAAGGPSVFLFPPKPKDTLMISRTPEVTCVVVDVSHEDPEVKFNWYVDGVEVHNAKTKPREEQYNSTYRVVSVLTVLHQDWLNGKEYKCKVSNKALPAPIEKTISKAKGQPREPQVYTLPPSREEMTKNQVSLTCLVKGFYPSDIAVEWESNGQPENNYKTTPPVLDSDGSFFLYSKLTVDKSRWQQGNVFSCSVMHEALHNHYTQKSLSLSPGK
light: EIVMTQSPATLSVSPGERATLSCKASQDIGSNLNWLQQKPGQAPRRLIYAVSNRGPGIPARFSGSRSGSEYTLTISSLQSEDFAVYYCLQYASSPWTFGQGTKVEIKRTVAAPSVFIFPPSDEQLKSGTASVVCLLNNFYPREAKVQWKVDNALQSGNSQESVTEQDSKDSTYSLSSTLTLSKADYEKHKVYACEVTHQGLSSPVTKSFNRGEC
A word on the Kd: it is the concentration at which binding is half-saturated. Usually koff stands for a measure of how fast the partners let go of each other. The low end stands for a long-lived complex, the high end for a short-lived complex. The kon is the rate constant with which the complex forms. With B1, the Kd was 4.15 nM in assay [1]; ≤ 0.023 nM and 0.052 nM in assay [2]; 6.34 nM in assay [3]; 6.2 nM in assay [4]; 5.53 nM in assay [5]. Also, the figures for the dissociation rate constant (koff) in assay [2] and in assay [5] were 9.2e-06 s⁻¹ and 0.00028 s⁻¹, respectively. Moreover, the kon in assay [2] is 220000 M⁻¹ s⁻¹ and 180000 M⁻¹ s⁻¹; in assay [5], 52000 M⁻¹ s⁻¹.

B2: NEG278 (antibody, human IgG1, kappa, V domains shown)
VH: QVQLVQSGAEVKKPGASVKVSCKASAYTFTSSWMQWVRQAPGQGLEWMGEIDPSDNYANYNQKFQGRVTLTVDTSTSTAYMELSSLRSEDTAVYYCASGSYFSNFFDYWGQGTLVTVSS
VL: EIVMTQSPATLSVSPGERATLSCKASQDIGSNLNWLQQKPGQAPRRLIYAASVREPGIPARFSGSRSGSEYTLTISSLQSEDFAVYYCLQYASSPWTFGQGTKVEIKR
notes: humanized, hIgG1/kappa, parental antibody 19C16
Regarding B2, the Kd in assay [6] was not above 0.017 nM.
